Key:
[1] = molecular target: Vβ 11 TCR on T hybridoma
[2] = molecular target: Vβ 1 TCR on T hybridoma
[3] = molecular target: Vβ 8.2 TCR on T hybridoma
[4] = molecular target: Vβ 3 TCR on T hybridoma
[5] = molecular target: I-Eα chain of the murine MHC (class II) (mouse)
[6] = molecular target: Vβ 6 TCR on T hybridoma

Row | Substance | IL-2 (U/ml) produced by T hybridomas + APCs [1] [U/ml] | IL-2 (U/ml) produced by T hybridomas + APCs [2] [U/ml] | IL-2 (U/ml) produced by T hybridomas + APCs [3] [U/ml] | IL-2 (U/ml) produced by T hybridomas + APCs [4] [U/ml] | Uptake of 3H-TdR by Mouse Lymphocytes (counts per minute × 10^-3) [5] | IL-2 (U/ml) produced by T hybridomas + APCs [6] [U/ml]
1 | Staphylococcus enterotoxin A (from UniProt P0A0L2) (ligand) | 1180 | 691 | 0 | 1880 | – | –
2 | MBP-MAM fusion protein | – | – | – | – | 80.7 | –
3 | Native Mycoplasma arthritidis T-cell mitogen (MAM) (ligand) | 0 | 0 | 232 | 0 | 108 | 640
4 | Staphylococcus enterotoxin B (from UniProt P01552) (ligand) | 0 | 0 | 608 | 1830 | – | 0
